From PMC9027083

target: recombinant MBP-EDIII of DENV2 (Dengue virus 2 (strain Thailand/16681/84)); assay: SPR

Row | Kd [nM] | koff [s⁻¹] | kon [M⁻¹ s⁻¹] | Substance
1 | 203 | 0.0195 | 96200 | 1A1D-2 Fab Y105R.H
2 | 41.9 | 0.00822 | 197000 | 1A1D-2 Fab A54E.H
3 | 12.3 | 0.00274 | 222000 | 1A1D-2 Fab A54E-Y105R double mutant
